Reference: US7026443
Read-outs that look alike come from different tables or passages of the source.

Key:
HLA-A*2402 (human) [1] = target: HLA-A*2402 (human)
HLA-A*0201 (human) = assay: inhibition of binding of 125I-labelled standard peptide to purified HLA, gel filtration
HLA-A*2402 (human) [2] = target: HLA-A*2402 (human); remark: listed apart in the source
HLA-A*0301 (human) [3] = target: HLA-A*0301 (human)
HLA-A*1101 (human) [4] = target: HLA-A*1101 (human)
HLA-A*0301 (human) [5] = target: HLA-A*0301 (human); remark: listed apart in the source
HLA-A*1101 (human) [6] = target: HLA-A*1101 (human); remark: listed apart in the source
[7] = remark: other sources report otherwise

Binder PYKLPDLCTEL (modifications not checked) [… (HPV18 E6, position 11, 11 amino acids)] has a relative binding ratio (IC50 of standard peptide / IC50 of test peptide) (HLA-A*2402 (human) [1]) of 0.0064.

Binder LMGTLGIV (modifications not checked) [HPV16 E7 peptide LMGTLGIV (position 83, 8 amino acids)] has a relative binding ratio (IC50 of standard peptide / IC50 of test peptide) (HLA-A*0201 (human)) of 0.0001.

LYNLLIRCL (modifications not checked) [HPV45 E6 98 peptide … (SEQ ID NO: 15730)] gave a relative binding ratio (IC50 of standard peptide / IC50 of test peptide) (HLA-A*2402 (human) [2]) of 0.0001.

LYNLLIRCL (modifications not checked) [HPV45 E6 position 98 peptide … (SEQ ID NO: 46118)] showed a binding affinity ratio (IC50 of standard peptide / IC50 of test peptide) (HLA-A*2402 (human) [1]) of 0.0001.

HVDIRTLEDL (modifications not checked) [HPV16 E7 peptide … (position 73, 10 amino acids)] showed a relative binding ratio (IC50 of standard peptide / IC50 of test peptide) (HLA-A*0201 (human)) of 0.0001.

Binder ATMCRHYKR (modifications not checked) [HPV16 E1 peptide … (position 406, 9 amino acids)] has a binding affinity ratio (IC50 of standard peptide / IC50 of test peptide) (HLA-A*0301 (human) [3]) of 0.066, a binding affinity ratio (IC50 of standard peptide / IC50 of test peptide) (HLA-A*1101 (human) [4]) of 1.5 and a relative binding ratio (IC50 of standard peptide / IC50 of test peptide) (ratio to standard peptide) (HLA-A*0301 (human) [5]) of 0.066.

For ALFTAQEAK (modifications not checked) [HPV16 E1 peptide … (position 69, 9 amino acids)], the binding affinity ratio (IC50 of standard peptide / IC50 of test peptide) (HLA-A*0301 (human) [3]) was 0.24, the binding affinity ratio (IC50 of standard peptide / IC50 of test peptide) (HLA-A*1101 (human) [4]) was 0.4 and the relative binding ratio (IC50 of standard peptide / IC50 of test peptide) (ratio to standard peptide) (HLA-A*0301 (human) [5]) was 0.24.

ALLRYKCGK (modifications not checked) [HPV45 E1 peptide … (position 270, 9 amino acids)] showed a relative binding ratio (IC50 of standard peptide / IC50 of test peptide) (HLA-A*0301 (human) [3]) of 0.09, a relative binding ratio (IC50 of standard peptide / IC50 of test peptide) (HLA-A*1101 (human) [4]) of 0.14 and a relative binding ratio (IC50 of standard peptide / IC50 of test peptide) (HLA-A*1101 (human) [6]) of 0.14.

With LYNLLIRCL (modifications not checked) [… (HPV18 E6, position 98, 9 amino acids)] the relative binding ratio (IC50 of standard peptide / IC50 of test peptide) (HLA-A*2402 (human) [1]) was 0.0001.

Binder VFEFAFKDLF (modifications not checked) [… (HPV18 E6, position 44, 10 amino acids)] has a relative binding ratio (IC50 of standard peptide / IC50 of test peptide) (HLA-A*2402 (human) [1]) of 0.036.

Work on LYNLLIRCL (modifications not checked) [HPV18 E6 98-106 peptide …] yielded a relative binding ratio (IC50 of standard peptide / IC50 of test peptide) (ratio to standard peptide) (HLA-A*2402 (human) [2]) of 0.0001.

VYCKTVLEL (modifications not checked) [… (HPV18 E6, position 33, 9 amino acids)] showed a relative binding ratio (IC50 of standard peptide / IC50 of test peptide) (HLA-A*2402 (human) [1]) of 0.022.

In the case of DLLMGTLGIV (modifications not checked) [HPV16 E7 peptide … (position 81, 10 amino acids)], the relative binding ratio (IC50 of standard peptide / IC50 of test peptide) (HLA-A*0201 (human); [7]) is reported as 0.0005.

For KLPDLCTEL (modifications not checked) [HPV18 E6 13-21 peptide …], the relative binding ratio (IC50 of standard peptide / IC50 of test peptide) (ratio to standard peptide) (HLA-A*2402 (human) [2]; [7]) was 0.0013.

DFAFRDLCI (modifications not checked) [HPV16 E6 51 …] was tested, and the binding affinity ratio (IC50 of standard peptide / IC50 of test peptide) (HLA-A*2402 (human) [2]) was 0.0003 and the relative binding ratio (IC50 of standard peptide / IC50 of test peptide) (ratio to standard peptide) (HLA-A*2402 (human) [1]) was 0.0003.

Work on LLIRCLRCQK (modifications not checked) [HPV45 E6 peptide … (position 101, 10 amino acids)] yielded a relative binding ratio (IC50 of standard peptide / IC50 of test peptide) (ratio to standard peptide) (HLA-A*0301 (human) [3]) of 0.047, a relative binding ratio (IC50 of standard peptide / IC50 of test peptide) (ratio to standard peptide) (HLA-A*1101 (human) [4]) of 0.12 and a binding affinity ratio (IC50 of standard peptide / IC50 of test peptide) (HLA-A*0301 (human) [5]) of 0.047. The relative binding ratio (IC50 of standard peptide / IC50 of test peptide) (ratio to standard peptide) (HLA-A*1101 (human) [6]) was 0.12.

Work on FYSRIREL (modifications not checked) [HPV18 E6 71-78 peptide FYSRIREL] yielded a relative binding ratio (IC50 of standard peptide / IC50 of test peptide) (ratio to standard peptide) (HLA-A*2402 (human) [2]) of 0.026.

With CIDFYSRIR (modifications not checked) [HPV45 E6 peptide … (position 68, 9 amino acids)] the relative binding ratio (IC50 of standard peptide / IC50 of test peptide) (ratio to standard peptide) (HLA-A*0301 (human) [3]) was 0.0001, the relative binding ratio (IC50 of standard peptide / IC50 of test peptide) (ratio to standard peptide) (HLA-A*1101 (human) [4]) was 0.0001 and the binding affinity ratio (IC50 of standard peptide / IC50 of test peptide) (HLA-A*0301 (human) [5]) was 0.001. The relative binding ratio (IC50 of standard peptide / IC50 of test peptide) (ratio to standard peptide) (HLA-A*1101 (human) [6]) was 0.0001.

FMSFLTALK (modifications not checked) [HPV16 E1 peptide … (position 453, 9 amino acids)] gave a binding affinity ratio (IC50 of standard peptide / IC50 of test peptide) (HLA-A*0301 (human) [3]) of 0.13, a binding affinity ratio (IC50 of standard peptide / IC50 of test peptide) (HLA-A*1101 (human) [4]) of 0.21 and a binding affinity ratio relative to the standard peptide (IC50 standard / IC50 test) (HLA-A*0301 (human) [5]) of 0.13.

Binder MLDLQPET (modifications not checked) [HPV16 E7 peptide MLDLQPET (position 12, 8 amino acids)] has a relative binding ratio (IC50 of standard peptide / IC50 of test peptide) (HLA-A*0201 (human); [7]) of 0.0001.

FYSRIREL (modifications not checked) [HPV45 E6 71 peptide FYSRIREL (SEQ ID NO: 15714)] was tested, and the relative binding ratio (IC50 of standard peptide / IC50 of test peptide) (HLA-A*2402 (human) [2]) was 0.026.

Binder DIRTLEDL (modifications not checked) [HPV16 E7 peptide DIRTLEDL (position 75, 8 amino acids)] has a relative binding ratio (IC50 of standard peptide / IC50 of test peptide) (HLA-A*0201 (human)) of 0.0001.

FYSRIREL (modifications not checked) [FYSRIREL (HPV18 E6, position 71, 8 amino acids)] gave a relative binding ratio (IC50 of standard peptide / IC50 of test peptide) (HLA-A*2402 (human) [1]) of 0.026.

PYKLPDLCTEL (modifications not checked) [HPV45 E6 position 11 peptide … (SEQ ID NO: 46119)] was tested, and the binding affinity ratio (IC50 of standard peptide / IC50 of test peptide) (HLA-A*2402 (human) [1]) was 0.0064.

PYKLPDLCTEL (modifications not checked) [HPV45 E6 11 peptide … (SEQ ID NO: 15737)] gave a relative binding ratio (IC50 of standard peptide / IC50 of test peptide) (HLA-A*2402 (human) [2]) of 0.0064.

Binder DLLMGTLGI (modifications not checked) [HPV16 E7 peptide … (position 81, 9 amino acids)] has a relative binding ratio (IC50 of standard peptide / IC50 of test peptide) (HLA-A*0201 (human)) of 0.0002.

With VYCKQQLL (modifications not checked) [HPV16 E6 38 VYCKQQLL] the relative binding ratio (IC50 of standard peptide / IC50 of test peptide) (HLA-A*2402 (human) [2]) was 0.0069 and the relative binding ratio (IC50 of standard peptide / IC50 of test peptide) (ratio to standard peptide) (HLA-A*2402 (human) [1]) was 0.0069.

FYSRIREL (modifications not checked) [HPV45 E6 position 71 peptide FYSRIREL (SEQ ID NO: 46116)] gave a binding affinity ratio (IC50 of standard peptide / IC50 of test peptide) (HLA-A*2402 (human) [1]) of 0.026.

For LLMGTLGI (modifications not checked) [HPV16 E7 peptide LLMGTLGI (position 82, 8 amino acids)], the relative binding ratio (IC50 of standard peptide / IC50 of test peptide) (HLA-A*0201 (human)) was 0.0008.

With CYSLYGTTL (modifications not checked) [HPV16 E6 87 …] the binding affinity ratio (IC50 of standard peptide / IC50 of test peptide) (HLA-A*2402 (human) [2]) was 0.046 and the relative binding ratio (IC50 of standard peptide / IC50 of test peptide) (ratio to standard peptide) (HLA-A*2402 (human) [1]) was 0.046.

DLQPETTDL (modifications not checked) [HPV16 E7 peptide … (position 14, 9 amino acids)] was tested, and the relative binding ratio (IC50 of standard peptide / IC50 of test peptide) (HLA-A*0201 (human)) was 0.0003.

Work on LIRCLRCQK (modifications not checked) [HPV45 E6 peptide … (position 102, 9 amino acids)] yielded a relative binding ratio (IC50 of standard peptide / IC50 of test peptide) (ratio to standard peptide) (HLA-A*0301 (human) [3]) of 0.019, a relative binding ratio (IC50 of standard peptide / IC50 of test peptide) (ratio to standard peptide) (HLA-A*1101 (human) [4]) of 0.0012 and a binding affinity ratio (IC50 of standard peptide / IC50 of test peptide) (HLA-A*0301 (human) [5]) of 0.019. For the same binder, the relative binding ratio (IC50 of standard peptide / IC50 of test peptide) (ratio to standard peptide) (HLA-A*1101 (human) [6]) was 0.0012.

For RFHNIRGRW (modifications not checked) [HPV16 E6 131 …], the relative binding ratio (IC50 of standard peptide / IC50 of test peptide) (HLA-A*2402 (human) [2]; [7]) was 0.022 and the relative binding ratio (IC50 of standard peptide / IC50 of test peptide) (ratio to standard peptide) (HLA-A*2402 (human) [1]; [7]) was 0.022.

Binder VYRDGNPY (modifications not checked) [HPV16 E6 60 VYRDGNPY] has a relative binding ratio (IC50 of standard peptide / IC50 of test peptide) (HLA-A*2402 (human) [2]) of 0.0001.

In the case of TIHDIILECV (modifications not checked) [HPV16 E6 peptide … (position 29, 10 amino acids)], the relative binding ratio (IC50 of standard peptide / IC50 of test peptide) (HLA-A*0201 (human)) is reported as 0.021.

Work on PYAVCDKCL (modifications not checked) [HPV16 E6 66 …] yielded a relative binding ratio (IC50 of standard peptide / IC50 of test peptide) (HLA-A*2402 (human) [2]) of 0.0078 and a relative binding ratio (IC50 of standard peptide / IC50 of test peptide) (ratio to standard peptide) (HLA-A*2402 (human) [1]) of 0.0078.

FYSRIRELRHY (modifications not checked) [HPV18 E6 71-81 peptide …] showed a relative binding ratio (IC50 of standard peptide / IC50 of test peptide) (ratio to standard peptide) (HLA-A*2402 (human) [2]) of 0.0052.

KLPDLCTEL (modifications not checked) [HPV45 E6 13 peptide … (SEQ ID NO: 15726)] gave a relative binding ratio (IC50 of standard peptide / IC50 of test peptide) (HLA-A*2402 (human) [2]; [7]) of 0.0013.
